Consider one molecule from publication doi:10.1101/2025.07.14.664640 (bioRxiv, 2025).

The target in the experiment is T1, MBP-HS1BP3 full length (UniProt Q53T59 1-392).
T1 sequence (looked up): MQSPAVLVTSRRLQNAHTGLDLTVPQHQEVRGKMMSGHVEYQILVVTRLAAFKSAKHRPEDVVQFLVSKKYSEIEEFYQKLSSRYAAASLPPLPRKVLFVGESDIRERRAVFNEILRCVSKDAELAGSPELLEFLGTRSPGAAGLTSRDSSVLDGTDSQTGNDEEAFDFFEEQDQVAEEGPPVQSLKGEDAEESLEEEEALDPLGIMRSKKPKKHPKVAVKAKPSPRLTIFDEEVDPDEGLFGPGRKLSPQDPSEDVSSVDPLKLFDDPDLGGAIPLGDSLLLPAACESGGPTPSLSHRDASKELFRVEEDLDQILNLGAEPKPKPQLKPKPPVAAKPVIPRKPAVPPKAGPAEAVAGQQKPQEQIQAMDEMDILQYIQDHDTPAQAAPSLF
The experiment can be described thus: pull-down.

B1: GST-SH3 (SH3 domain of cortactin fused to GST) (domain or fragment)
chain: not shown
On to B1, for which the binding result was “binds”.
